Assays:
[1] = molecular target: eel follicle-stimulating hormone receptor (eel FSHR) on CHO-K1 cells (eel)
[2] = molecular target: eel follicle-stimulating hormone receptor (eel FSHR) on HEK293 cells (eel)

| cAMP production (HTRF) in CHO-K1 cells transiently expressing eel FSHR, 30 min, dose-response: EC50 [1] [µg/mL] | pERK1/2 HTRF ratio in HEK293 cells transiently expressing eel FSHR, time course 0-30 min after agonist; peak at 5 min [2] | Substance |
| --- | --- | --- |
| 0.16 | 7460 | recombinant single-chain (tethered) eel follicle-stimulating hormone, wild type (eel FSH β/α-wt) (ligand) |
| 0.129 | 7090 | recombinant single-chain eel follicle-stimulating hormone mutant with the eCG β-subunit CTP linker (amino acids 115–149) between the β-subunit and the α-subunit (eel FSH-M) (from UniProt P08751 135-169) (ligand) |
